In patent US20170224769A1:

Molecular target: high mobility group box 1 protein (HMGB1) (Homo sapiens (Human)) (UniProt P09429)
Experiment: SPR (Reichert SR7500DC), HMGB1 coated on CMDH chip

Chain of UniProt P09429 (P09429 whole entry, form in doubt): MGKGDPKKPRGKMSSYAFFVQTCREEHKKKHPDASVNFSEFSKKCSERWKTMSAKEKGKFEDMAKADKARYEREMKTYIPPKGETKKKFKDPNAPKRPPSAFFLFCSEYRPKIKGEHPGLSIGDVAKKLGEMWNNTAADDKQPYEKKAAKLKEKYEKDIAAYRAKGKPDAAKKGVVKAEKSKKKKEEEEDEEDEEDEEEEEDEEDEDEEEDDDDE

Substance | Kd | koff | kon
rHMGB1A-his6 (high mobility group box 1 A domain, C-terminal six histidines) (from UniProt P09429 1-164) | 2800 nM | 0.00394 s⁻¹ | 1400 M⁻¹ s⁻¹
rTAT-HMGB1A-his6 (fusion of the TAT peptide and the A box domain of HMGB1, C-terminal six histidines) (from UniProt P04608 49-57; P09429 1-164) | 75.1 nM | 0.000691 s⁻¹ | 9200 M⁻¹ s⁻¹
